Values quoted from earlier work in PMC10889394.
Blank lines part the entries; values can stand above or below the substance they belong to.

Columns and labels:
TIMP-2 (Homo sapiens) = TIMP-2 (Homo sapiens) (UniProt P16035)
[1] = target: SFTI-1 (Helianthus annuus) (UniProt Q4GWU5)
[2] = target: SFTI-TCTR-N12N14 (synthetic construct)
[3] = target: cystatin E (Homo sapiens) (UniProt Q15828)
[4] = target: recombinant hirudin variant 1 (Hirudo medicinalis) (UniProt P01050)

Chain of β-trypsin (P00760 149-246): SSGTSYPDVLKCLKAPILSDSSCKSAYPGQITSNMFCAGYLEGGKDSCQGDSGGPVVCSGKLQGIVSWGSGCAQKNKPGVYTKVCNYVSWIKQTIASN
Chain of cystatin E (Homo sapiens) (Q15828 29-149): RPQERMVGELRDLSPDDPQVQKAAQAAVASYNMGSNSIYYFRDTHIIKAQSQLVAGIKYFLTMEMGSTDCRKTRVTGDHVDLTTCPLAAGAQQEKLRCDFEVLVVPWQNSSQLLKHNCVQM
Chain of TIMP-2 (Homo sapiens) (P16035 27-220): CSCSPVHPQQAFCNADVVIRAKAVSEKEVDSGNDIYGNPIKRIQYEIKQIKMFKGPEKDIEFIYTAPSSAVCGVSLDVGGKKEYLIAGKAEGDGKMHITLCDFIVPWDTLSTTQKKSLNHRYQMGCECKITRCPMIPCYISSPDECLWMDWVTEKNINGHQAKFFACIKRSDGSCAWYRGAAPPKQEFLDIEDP

- Ki (TIMP-2 (Homo sapiens)): 0.104 nM
Substance: MMP-14 catalytic domain (from UniProt P50281)

- Ki [1]: 0.017 nM
- Ki [2]: 0.7 nM
Substance: β-trypsin (from UniProt P00760)

- Ki [3]: 0.011 nM
Substance: legumain (from UniProt Q99538)

Substance: thrombin (from UniProt P00734)
- Ki [4]: 0.00018 nM
